Measured values taken from patent publication US5616559, “Papillomavirus E2 trans-activation repressors” (Biogen, Inc., dated 1997).
Where a chain is given by its changes, count along the chain named.

B1: E2-123 (methionine, valine and the C-terminal 121 amino acids of HPV16 E2) (other)
chain: MVPDTGNPCHTTKLLHRDSVDSAPILTAFNSSHKGRINCNSNTTPIVHLKGDANTLKCLRYRFKKHCTLYTAVSSTWHWTGHNVKHKSAIVTLTYDSEWQRDQFLSQVKIPKTITVSTGFMSI
B2: BPV1 E2 repressor with a tryptophan to asparagine mutation at amino acid residue 360 (other)
chain: MAGAGRIYYSRFGDEAARFSTTGHYSVRDQDRVYAGVSSTSSDFRDRPDGVWVASEGPEGDPAGKEAEPAQPVSSLLGSPACGPIRAGLGWVRDGPRSHPYNFPAGSGGSILRSSSTPVQGTVPVDLASRQEEEEQSPDSTEEEPVTLPRRTTNDGFHLLKAGGSCFALISGTANQVKCYRFRVKKNHRHRYENCTTTNFTVADNGAERQGQAQILITFGSPSQRQDFLKHVPLPPGMNISGFTASLDF
B3: E2-85 (methionine, alanine and the C-terminal 83 amino acids of HPV16 E2) (other)
chain: MASNTTPIVHLKGDANTLKCLRYRFKKHCTLYTAVSSTWHWTGHNVKHKSAIVTLTYDSEWQRDQFLSQVKIPKTITVSTGFMSI
B4: BPV1 E2 mutant 360S, full-length form (other)
chain: METACERLHVAQETQMQLIEKSSDKLQDHILYWTAVRTENTLLYAARKKGVTVLGHCRVPHSVVCQERAKQAIEMQLSLQELSKTEFGDEPWSLLDTSWDRYMSEPKRCFKKGARVVEVEFDGNASNTNWYTVYSNLYMRTEDGWQLAKAGADGTGLYYCTMAGAGRIYYSRFGDEAARFSTTGHYSVRDQDRVYAGVSSTSSDFRDRPDGVWVASEGPEGDPAGKEAEPAQPVSSLLGSPACGPIRAGLGWVRDGPRSHPYNFPAGSGGSILRSSSTPVQGTVPVDLASRQEEEEQSPDSTEEEPVTLPRRTTNDGFHLLKAGGSCFALISGTANQVKCYRFRVKKNHRHRYENCTTTSFTVADNGAERQGQAQILITFGSPSQRQDFLKHVPLPPGMNISGFTASLDF
B5: BPV1 E2 mutant 333V in the E2 repressor format (C-terminal 249 amino acids) (other)
chain: B2 chain with G172V, N199W
B6: BPV1 E2 mutant 360S in the E2 repressor format (C-terminal 249 amino acids) (other)
chain: B2 chain with N199S
B7: BPV1 E2 mutant 340R in the E2 repressor format (C-terminal 249 amino acids) (other)
chain: B2 chain with C179R, N199W
B8: BPV1 E2 mutant 344L in the E2 repressor format (C-terminal 249 amino acids) (other)
chain: B2 chain with R183L, N199W
B9: BPV1 E2 mutant 399I in the E2 repressor format (C-terminal 249 amino acids) (other)
chain: B2 chain with N199W, M238I
B10: BPV1 E2 mutant 340S in the E2 repressor format (C-terminal 249 amino acids) (other)
chain: B2 chain with C179S, N199W
B11: BPV1 E2 mutant 386W in the E2 repressor format (C-terminal 249 amino acids) (other)
chain: B2 chain with N199W, R225W
B12: BPV1 E2 mutant 337L in the E2 repressor format (C-terminal 249 amino acids) (other)
chain: B2 chain with Q176L, N199W
B13: BPV1 E2 mutant 340F in the E2 repressor format (C-terminal 249 amino acids) (other)
chain: B2 chain with C179F, N199W
B14: BPV1 E2 mutant 340Y in the E2 repressor format (C-terminal 249 amino acids) (other)
chain: B2 chain with C179Y, N199W
B15: BPV1 E2 mutant 339M in the E2 repressor format (C-terminal 249 amino acids) (other)
chain: B2 chain with K178M, N199W
B16: BPV1 E2 mutant 340G in the E2 repressor format (C-terminal 249 amino acids) (other)
chain: B2 chain with C179G, N199W
B17: BPV1 E2 mutant 333V, full-length form (other)
chain: B4 chain with G333V, S360W

What follows are molecules tested against full-length HPV16 E2 protein (human papillomavirus type 16 (HPV16), UniProt P03120) (assay: cell-based or functional assay).

| Molecule | % REPRESSION (hGH reporter) [%] |
| --- | --- |
| B1 | 100 |
| B2 | 0 |
| B3 | 87.2 |

What follows are molecules tested against full-length HPV16 E2 protein (human papillomavirus type 16 (HPV16)) (UniProt P03120) (assay: not given).

| Molecule | % REPRESSION (hGH reporter) [%] |
| --- | --- |
| native BPV1 E2 repressor (C-terminal 249 amino acids of the BPV1 E2 protein) (from UniProt P03122) | 100 |

The molecules below were run against full-length native BPV1 E2 trans-activator protein (bovine papillomavirus type 1 (BPV1)) (UniProt P03122) (assay: not given).

| Molecule | % repression of E2-dependent trans-activation (CAT or hGH reporter) [%] |
| --- | --- |
| native BPV1 E2 repressor (C-terminal 249 amino acids of the BPV1 E2 protein) (from UniProt P03122) | > 80 |

Molecular target: the molecule itself
Assay: homodimerization; UV cross-linking, yeast extract

| Molecule | binding result |
| --- | --- |
| B4 | no binding |

The molecules below were run against full-length native BPV1 E2 trans-activator protein (bovine papillomavirus type 1 (BPV1), UniProt P03122) (assay: cell-based or functional assay).

| Molecule | Repression as % decrease in trans-activation by E2 [%] |
| --- | --- |
| B5 | 0 |
| B6 | 32.3 |
| B7 | 95.6 |
| B8 | 82.6 |
| B9 | 86.9 |
| B10 | 89.6 |
| B11 | 81.4 |
| B12 | 90.4 |
| B13 | 86.1 |
| B14 | 93.5 |
| B15 | 76.2 |
| B16 | 91.7 |

Molecular target: the molecule itself
Assay: homodimerization; UV cross-linking, SDS-PAGE, immunoblot

| Molecule | binding result |
| --- | --- |
| B17 | no binding |

Molecular target: full-length native BPV1 E2 trans-activator protein (bovine papillomavirus type 1 (BPV1)) (UniProt P03122)
Assay: not given
Remark: another data set of the same source

| Molecule | Repression as % decrease in trans-activation by E2 [%] |
| --- | --- |
| BPV1 E2 mutant 316Y in the E2 repressor format (C-terminal 249 amino acids) (from UniProt P03122) | 8 |
| BPV1 E2 mutant 366Y/376L in the E2 repressor format (C-terminal 249 amino acids) (from UniProt P03122) | 16.1 |
| BPV1 E2 mutant 317STOP in the E2 repressor format (from UniProt P03122) | 7.1 |
| BPV1 E2 mutant 370I in the E2 repressor format (C-terminal 249 amino acids) (from UniProt P03122) | 66.1 |
| BPV1 E2 mutant 411* in the E2 repressor format (from UniProt P03122) | 4.5 |
| BPV1 E2 mutant 408* in the E2 repressor format (from UniProt P03122) | 59.5 |
| BPV1 E2 mutant 374S/375L/391I (3SLI) in the E2 repressor format (C-terminal 249 amino acids) (from UniProt P03122) | 39 |
| BPV1 E2 mutant 402* in the E2 repressor format (from UniProt P03122) | 45.2 |
